Measurements as given in the Immune Epitope Database (IEDB).
Values belong to the sequence of their own block, whether it stands above or below them.

How the values were obtained:
HLA-A*01:01 [1] = experiment: IEDB peptide-MHC binding, purified MHC/direct/fluorescence; filed as Kd, often an IC50 or EC50 that approximates it; ≥ and ≤ were set here for values at or beyond the usual limits of such assays; conditions: source organism: Giardia lamblia ATCC 50803
HLA-A*02:01 [2] = experiment: as above; conditions: source organism: Giardia lamblia ATCC 50803
HLA-A*03:01 [3] = experiment: as above
HLA-A*11:01 [4] = experiment: as above
HLA-A*26:01 = experiment: as above; conditions: source organism: Giardia lamblia ATCC 50803
HLA-A*69:01 = experiment: as above; conditions: source organism: Giardia lamblia ATCC 50803
HLA-B*07:02 = experiment: as above; conditions: source organism: Giardia lamblia ATCC 50803
HLA-B*08:01 = experiment: as above; conditions: source organism: Giardia lamblia ATCC 50803
HLA-B*15:01 [5] = experiment: as above; conditions: source organism: Giardia lamblia ATCC 50803
HLA-B*27:05 = experiment: as above; conditions: source organism: Giardia lamblia ATCC 50803
HLA-B*40:01 = experiment: as above
HLA-B*44:02 = experiment: as above
HLA-B*57:01 [6] = experiment: as above
HLA-B*58:01 [7] = experiment: as above
HLA-B*15:17 = experiment: as above
HLA-A*32:01 = experiment: IEDB peptide-MHC binding, purified MHC/competitive/radioactivity; filed as Kd, often an IC50 or EC50 that approximates it; ≥ and ≤ were set here for values at or beyond the usual limits of such assays
HLA-B*57:01 [8] = experiment: as above
HLA-B*58:01 [9] = experiment: as above
HLA-A*31:01 = experiment: IEDB peptide-MHC binding, purified MHC/competitive/fluorescence; filed as Kd, often an IC50 or EC50 that approximates it; ≥ and ≤ were set here for values at or beyond the usual limits of such assays
HLA-A*02:01 [10] = experiment: as above; conditions: source organism: Escherichia coli
HLA-A*24:03 = experiment: as above
HLA-A*02:06 = experiment: IEDB peptide-MHC binding, purified MHC/competitive/radioactivity; filed as Kd, often an IC50 or EC50 that approximates it; ≥ and ≤ were set here for values at or beyond the usual limits of such assays; conditions: source organism: Dengue virus 1 Singapore/S275/1990
HLA-A*01:01 [11] = experiment: IEDB peptide-MHC binding, purified MHC/competitive/fluorescence; filed as Kd, often an IC50 or EC50 that approximates it; ≥ and ≤ were set here for values at or beyond the usual limits of such assays
HLA-B*18:01 = experiment: IEDB peptide-MHC binding, purified MHC/direct/fluorescence; filed as Kd, often an IC50 or EC50 that approximates it; ≥ and ≤ were set here for values at or beyond the usual limits of such assays; conditions: source organism: Orthohantavirus hantanense
HLA-B*15:01 [12] = experiment: IEDB peptide-MHC binding, purified MHC/competitive/fluorescence; ≥ and ≤ were set here for values at or beyond the usual limits of such assays; conditions: source organism: Zaire ebolavirus
HLA-A*24:02 = experiment: as above; conditions: source organism: Zaire ebolavirus
HLA-A*02:01 [13] = experiment: as above; conditions: source organism: Zaire ebolavirus
HLA-A*03:01 [14] = experiment: as above; conditions: source organism: Zaire ebolavirus
HLA-A*11:01 [15] = experiment: as above; conditions: source organism: Zaire ebolavirus
[16] = source organism: Giardia lamblia ATCC 50803
[17] = source organism: Camelpox virus M-96
[18] = source organism: Dengue virus 1 Brazil/97-11/1997
[19] = source organism: Dengue virus 2 Jamaica/1409/1983
[20] = source organism: Dengue virus 4 Philippines/H241/1956
[21] = source organism: Yellow fever virus
[22] = source organism: Escherichia coli
[23] = source organism: Dengue virus 1 Singapore/S275/1990
[24] = source organism: Orthohantavirus hantanense
[25] = source organism: Brucella abortus 2308
[26] = source organism: Dengue virus 3 Martinique/1243/1999
[27] = source organism: Burkholderia mallei
[28] = source organism: Dengue virus 4 Dominica/814669/1981
[29] = source organism: Yersinia pestis Antiqua

Sequence: KLLQICMWF
Kd (HLA-A*01:01 [1]): ≥ 20000 nM | Kd (HLA-A*02:01 [2]): 3410 nM | Kd (HLA-A*03:01 [3]; [16]): ≥ 20000 nM | Kd (HLA-A*11:01 [4]; [16]): ≥ 20000 nM | Kd (HLA-A*26:01): ≥ 20000 nM | Kd (HLA-A*69:01): ≥ 20000 nM | Kd (HLA-B*07:02): ≥ 20000 nM | Kd (HLA-B*08:01): ≥ 20000 nM | Kd (HLA-B*15:01 [5]): 16600 nM | Kd (HLA-B*27:05): ≥ 20000 nM | Kd (HLA-B*40:01; [16]): ≥ 20000 nM | Kd (HLA-B*44:02; [16]): ≥ 20000 nM | Kd (HLA-B*57:01 [6]; [16]): ≥ 20000 nM | Kd (HLA-B*58:01 [7]; [16]): 1470 nM

Sequence: KSALNDFDF
Kd (HLA-B*15:17; [17]): 29.5 nM | Kd (HLA-B*57:01 [6]; [17]): 252 nM | Kd (HLA-B*58:01 [7]; [17]): 26.8 nM

Sequence: KSWLVHKQW
Kd (HLA-A*32:01; [18]): 16.9 nM | Kd (HLA-B*57:01 [8]; [18]): 5.87 nM | Kd (HLA-B*58:01 [9]; [18]): 3.03 nM

Sequence: KSYAQMWTL
Kd (HLA-A*32:01; [19]): 16.4 nM | Kd (HLA-B*57:01 [8]; [19]): 6.59 nM | Kd (HLA-B*58:01 [9]; [19]): 6.37 nM

Sequence: KTQRSGALW
Kd (HLA-B*57:01 [8]; [20]): 105 nM | Kd (HLA-B*58:01 [9]; [20]): 6.11 nM

Sequence: KVVNRWLFR
Kd (HLA-A*11:01 [4]; [21]): 4.5 nM | Kd (HLA-A*31:01; [21]): 1.1 nM

Kd (HLA-A*02:01 [10]): 36.2 nM | Kd (HLA-A*24:03; [22]): 44.1 nM
Sequence: LMQSLYDWI

Sequence: MASSVLLWMA
Kd (HLA-A*02:06): 90.6 nM | Kd (HLA-B*57:01 [8]; [23]): 859 nM | Kd (HLA-B*58:01 [9]; [23]): 223 nM

Sequence: MLASIDLKY
Kd (HLA-A*01:01 [11]; source organism: Influenza A virus (A/swine/Finistere/127/99(H3N2))): 427 nM

Sequence: MSSEGAWKHA
Kd (HLA-B*57:01 [8]; [20]): 134 nM | Kd (HLA-B*58:01 [9]; [20]): 254 nM

Sequence: REINAHEGQ
Kd (HLA-B*18:01): ≥ 20000 nM | Kd (HLA-B*40:01; [24]): 148 nM | Kd (HLA-B*44:02; [24]): ≥ 20000 nM

Sequence: RMGVQMQRF
Kd (HLA-A*24:03; source organism: Influenza A virus (A/swine/Hannover/1/1981(H1N1))): 294 nM

Sequence: RQMLHEIGR
Kd (HLA-A*03:01 [3]; [25]): 3220 nM | Kd (HLA-A*11:01 [4]; [25]): 660 nM | Kd (HLA-A*31:01; source organism: Paramagnetospirillum magnetotacticum MS-1): 1.17 nM

Sequence: RQRVIPVYQ
IC50 (HLA-B*15:01 [12]): 6370 nM

Kd (HLA-B*15:17; [22]): 1.5 nM
Sequence: RTAFLRFWL

Sequence: RVMGITAEW
Kd (HLA-A*32:01; [26]): 35.9 nM | Kd (HLA-B*57:01 [8]; [26]): 2.97 nM | Kd (HLA-B*58:01 [9]; [26]): 0.824 nM

Sequence: RVYRRRLAQ
Kd (HLA-A*03:01 [3]; [27]): 323 nM | Kd (HLA-A*11:01 [4]; [27]): ≥ 20000 nM | Kd (HLA-A*31:01; source organism: Burkholderia pseudomallei 1106a): 40.5 nM

Sequence: TASLVMLLVH
Kd (HLA-B*57:01 [8]; [28]): 7390 nM | Kd (HLA-B*58:01 [9]; [28]): 1350 nM

Sequence: TFAEGVVAF
IC50 (HLA-A*24:02): 213 nM | IC50 (HLA-B*15:01 [12]): 18400 nM

Sequence: VIYRGTTFA
IC50 (HLA-A*02:01 [13]): 1530 nM | IC50 (HLA-A*03:01 [14]): 4210 nM | IC50 (HLA-A*11:01 [15]): 38000 nM | IC50 (HLA-A*24:02): 45400 nM | IC50 (HLA-B*15:01 [12]): ≥ 70900 nM

Sequence: VSFNQNLEY
Kd (HLA-A*01:01 [11]; source organism: Influenza A virus (A/goose/Guangdong/1/1996(H5N1))): 25.9 nM

Sequence: WIYDPRNQK
Kd (HLA-A*03:01 [3]; [29]): 29.4 nM | Kd (HLA-A*11:01 [4]; [29]): 375 nM | Kd (HLA-A*31:01; [29]): 107 nM

Sequence: WMAPSLTES
IC50 (HLA-A*02:01 [13]): 6450 nM | IC50 (HLA-B*15:01 [12]): 11400 nM
